Data taken from the RNAGym collection of RNA variant scans (doi:10.1073/pnas.2313332121).

B1: TPR t1 (parent)
chain: GACCAAUCUGCCCUCAGAGCUCGAGAACAUCUUCGGAUGCAGAGGAGGCAGGCUUCGGUGGCGCGAUAGCGCCAACGUCCUCAACCUCCAAUGCAUCCCACCACAUGAUGAUGCCUGAAGAGCCUUGGUUUUUUG

Variants of: B1
Test: polymerase ribozyme fitness, log enrichment relative to wild type (log ratio); higher = more active; in vitro selection for triplet polymerase activity
In short: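 Fitness compares each genotype's enrichment to that of the wild type on a logarithmic scale, averaging replicates with inverse-variance weights. The logarithm is base 2. Enrichment came from Illumina sequencing of input and output libraries after one triplicate round of in vitro selection, which included frozen incubation at −7 °C, of PCR-built, transcribed mutant libraries of each subunit of a heterodimeric triplet polymerase ribozyme. Only genotypes with ≥10 input reads and ≥1 read per output were kept.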
With C13U G45U U55C C70U G93U the “polymerase ribozyme fitness (log ratio)” value was -3.96. With C13U A100U C101U C104U A121C the “polymerase ribozyme fitness (log ratio)” value was 1.33. For U14A G52U C72U U116C G122U, the “polymerase ribozyme fitness (log ratio)” value was -4.11. For U14A A46C C70A U112A A119G G122C, the “polymerase ribozyme fitness (log ratio)” value was -2.7. In the case of C15G A46G G71A C88G, the “polymerase ribozyme fitness (log ratio)” value is reported as -5.35. In the case of C13U C28G C101A C104A, the “polymerase ribozyme fitness (log ratio)” value is reported as -5.64. In the case of C15A G45U A84U C123U, the “polymerase ribozyme fitness (log ratio)” value is reported as -2.4. In the case of C13U C40U A43U C72G A84G C89G, the “polymerase ribozyme fitness (log ratio)” value is reported as -6.24. In the case of C15A G77A U96A, the “polymerase ribozyme fitness (log ratio)” value is reported as -3.85. For C15U A29U C40A A46C, the “polymerase ribozyme fitness (log ratio)” value was -5.8. With C13U A29U A46U C56A C97U the “polymerase ribozyme fitness (log ratio)” value was -3.44. In the case of C13U C99U U133G, the “polymerase ribozyme fitness (log ratio)” value is reported as -2.46. For C13U G45U C82U, the “polymerase ribozyme fitness (log ratio)” value was -0.895. With C13U C89G the “polymerase ribozyme fitness (log ratio)” value was -1.01. For U14A G71C G128A, the “polymerase ribozyme fitness (log ratio)” value was -3.99. In the case of U14G G42C A46C C53U G61A, the “polymerase ribozyme fitness (log ratio)” value is reported as -4.45. With C13U G45A G51U C115A the “polymerase ribozyme fitness (log ratio)” value was -3.13. For C15G G48A U78G C97U A111U, the “polymerase ribozyme fitness (log ratio)” value was -6.43. In the case of U14A C49U G60A A100U U106A, the “polymerase ribozyme fitness (log ratio)” value is reported as -3.83. In the case of C13U C72A C101A C114A, the “polymerase ribozyme fitness (log ratio)” value is reported as -1.86. In the case of U14G U54C, the “polymerase ribozyme fitness (log ratio)” value is reported as -2.42. In the case of C13U C53A U54C G120C, the “polymerase ribozyme fitness (log ratio)” value is reported as 1.15. In the case of C15A U78C, the “polymerase ribozyme fitness (log ratio)” value is reported as -2.38. With C15G C73A the “polymerase ribozyme fitness (log ratio)” value was -2.02. In the case of U14G A43U C88G, the “polymerase ribozyme fitness (log ratio)” value is reported as -3.5. With C13U C20U G63U the “polymerase ribozyme fitness (log ratio)” value was -2.31. For U14G G44C C86U C89U G120A, the “polymerase ribozyme fitness (log ratio)” value was -2.75. With C15A A66G U81C the “polymerase ribozyme fitness (log ratio)” value was -4.15. In the case of C15A A16C C72A, the “polymerase ribozyme fitness (log ratio)” value is reported as -2.92. For U14G G120C, the “polymerase ribozyme fitness (log ratio)” value was 0.117. With C13U C22G C49U G71C C102U G122A the “polymerase ribozyme fitness (log ratio)” value was -5.74. For C15A G39U C40U C64U G93C, the “polymerase ribozyme fitness (log ratio)” value was -4.09. With U14A C49G G61C A66U the “polymerase ribozyme fitness (log ratio)” value was -5.01. With C15G A29G G39U G69U the “polymerase ribozyme fitness (log ratio)” value was -4.2. For U14A G63A G93A, the “polymerase ribozyme fitness (log ratio)” value was -4.67. In the case of U14C U67A G69A, the “polymerase ribozyme fitness (log ratio)” value is reported as -5.17. In the case of U14A G48A U59A C89A, the “polymerase ribozyme fitness (log ratio)” value is reported as -5.96. In the case of U14C G71U A91U C114A A121U C124U, the “polymerase ribozyme fitness (log ratio)” value is reported as -4.54. For C15G C40A U92C, the “polymerase ribozyme fitness (log ratio)” value was -4.63. With C15U A16U G71A C115A the “polymerase ribozyme fitness (log ratio)” value was -3.96. In the case of C15G C62A, the “polymerase ribozyme fitness (log ratio)” value is reported as -3.96. In the case of C13U U106G, the “polymerase ribozyme fitness (log ratio)” value is reported as -0.787. In the case of C15G U59G, the “polymerase ribozyme fitness (log ratio)” value is reported as -2.27. With C13U C56A U96G the “polymerase ribozyme fitness (log ratio)” value was -0.637. In the case of C15G G52U C89G G117C, the “polymerase ribozyme fitness (log ratio)” value is reported as -1.36. For C15G A41G C104U, the “polymerase ribozyme fitness (log ratio)” value was -2.92. In the case of C15U A105U, the “polymerase ribozyme fitness (log ratio)” value is reported as -3.42. With U14C C53G A74C A83G C94U the “polymerase ribozyme fitness (log ratio)” value was -2.55. In the case of C13U A27G, the “polymerase ribozyme fitness (log ratio)” value is reported as -2.05. With C15A C85G the “polymerase ribozyme fitness (log ratio)” value was -3.35. For C15A U33C C70U A111U, the “polymerase ribozyme fitness (log ratio)” value was -5.94. For C15A U109A, the “polymerase ribozyme fitness (log ratio)” value was -5.42. In the case of C15G A43U C56U, the “polymerase ribozyme fitness (log ratio)” value is reported as -3.19. For C15G C56G U87G U112G G113A C123G G135A, the “polymerase ribozyme fitness (log ratio)” value was -3.08. For C15G A37C C49U C53U, the “polymerase ribozyme fitness (log ratio)” value was -4.47. With U14C the “polymerase ribozyme fitness (log ratio)” value was -1.23. With U14A the “polymerase ribozyme fitness (log ratio)” value was -1.85. For U14G, the “polymerase ribozyme fitness (log ratio)” value was -1.56. In the case of C13U G47C U78C U109G, the “polymerase ribozyme fitness (log ratio)” value is reported as -4.45. In the case of U14A A26U, the “polymerase ribozyme fitness (log ratio)” value is reported as -5.1. In the case of U14A U21G, the “polymerase ribozyme fitness (log ratio)” value is reported as -1.66. With C15A A26G G110A G113U the “polymerase ribozyme fitness (log ratio)” value was -6. For U14G C64U C98U, the “polymerase ribozyme fitness (log ratio)” value was -4.29. For U14G G36U G42C G61A G113A U132A, the “polymerase ribozyme fitness (log ratio)” value was -5.95. In the case of U14A U21A U30G G58C U112C A118C, the “polymerase ribozyme fitness (log ratio)” value is reported as -4.31. In the case of U14A A24C C49G C72U U92C G113U U116A, the “polymerase ribozyme fitness (log ratio)” value is reported as -6.78. In the case of U14A G19U U32G U81G A100G G120C, the “polymerase ribozyme fitness (log ratio)” value is reported as -7.12. For C15A G52U A66U C94G, the “polymerase ribozyme fitness (log ratio)” value was -5.17. For C15A G19U G63C G113A G135C, the “polymerase ribozyme fitness (log ratio)” value was -3.99. For C15U A27G U32A A46C C82A G117U, the “polymerase ribozyme fitness (log ratio)” value was -5.76. In the case of C13U G110A, the “polymerase ribozyme fitness (log ratio)” value is reported as -0.303. For C13U C70U U109A U132A, the “polymerase ribozyme fitness (log ratio)” value was -6.56. In the case of U14G C40U U59C A84G U129A, the “polymerase ribozyme fitness (log ratio)” value is reported as -6.42. In the case of U14G U130A, the “polymerase ribozyme fitness (log ratio)” value is reported as -3.36. For C15A U92A, the “polymerase ribozyme fitness (log ratio)” value was -4.5. For C13U G71A, the “polymerase ribozyme fitness (log ratio)” value was -0.0397. In the case of U14G C22U A29G C124G U129C, the “polymerase ribozyme fitness (log ratio)” value is reported as -3.15. In the case of C13U C98A, the “polymerase ribozyme fitness (log ratio)” value is reported as -4.9. For C15G G71A U81C, the “polymerase ribozyme fitness (log ratio)” value was -4.61. With U14G C62U U78C the “polymerase ribozyme fitness (log ratio)” value was -2.77. For U14C A46C C79U U106C, the “polymerase ribozyme fitness (log ratio)” value was -3.22. In the case of U14A U54G A84U C98A A103U G117A C123G G128A, the “polymerase ribozyme fitness (log ratio)” value is reported as -6.1. With U14C G48U U54A the “polymerase ribozyme fitness (log ratio)” value was -2.87. With C15G C22U A37G U38G G63C G110C the “polymerase ribozyme fitness (log ratio)” value was -5.93.
